Experimental data published in US20220288219A1 (MYTHIC THERAPEUTICS, published 2022).

Target: T1, CD22 Protein (His Tag), Sino Biological Cat. No. 11958-H08H (UniProt P20273 20-687)
T1 construct: soluble analyte, 50 nM in BLI; also called Sino Biological antigen
T1 sequence (looked up): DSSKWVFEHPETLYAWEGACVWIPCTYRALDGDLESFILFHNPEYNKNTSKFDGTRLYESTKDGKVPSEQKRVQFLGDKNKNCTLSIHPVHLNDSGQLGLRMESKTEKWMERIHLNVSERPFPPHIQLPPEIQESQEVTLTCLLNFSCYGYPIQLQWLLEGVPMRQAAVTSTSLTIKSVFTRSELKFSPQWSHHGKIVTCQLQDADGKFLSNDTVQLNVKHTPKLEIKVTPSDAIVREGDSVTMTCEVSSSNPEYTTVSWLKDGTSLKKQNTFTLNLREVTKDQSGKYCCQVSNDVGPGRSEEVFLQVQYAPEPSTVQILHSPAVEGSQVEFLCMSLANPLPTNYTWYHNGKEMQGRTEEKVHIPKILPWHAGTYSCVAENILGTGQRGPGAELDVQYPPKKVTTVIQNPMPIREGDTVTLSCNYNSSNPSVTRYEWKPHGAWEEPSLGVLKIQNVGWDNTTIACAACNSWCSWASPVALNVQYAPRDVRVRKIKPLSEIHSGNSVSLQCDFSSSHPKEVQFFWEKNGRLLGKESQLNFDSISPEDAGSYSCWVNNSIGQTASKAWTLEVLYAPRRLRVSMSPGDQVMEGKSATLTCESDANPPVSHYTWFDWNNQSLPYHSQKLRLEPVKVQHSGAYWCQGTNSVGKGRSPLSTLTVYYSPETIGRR
Test: BLI, IgG on anti-human Fc sensor

Binder | binding result
MYT2275 (antibody, V domains shown, TRPH-222 VH I31H; tie by order) VH: EVQLVESGGGLVKPGGSLRLSCAASGFAFSHYDMSWVRQAPGKGLEWVAYISSGGGTTYYPDTVKGRFTISRDNAKNSLYLQMSSLRAEDTAMYYCARHSGYGSSYGVLFAYWGQGTLVTVSS VL: DIQMTQSPSSLSASVGDRVTITCRASQDISNYLNWYQQKPGKAVKLLIYYTSILHSGVPSRFSGSGSGTDYTLTISSLQQEDFATYFCQQGNTLPWTFGGGTKVEIK | no binding (tested: 50 nM)
MYT2301 (antibody, V domains shown, TRPH-222 VH G101H; tie by order) VH: EVQLVESGGGLVKPGGSLRLSCAASGFAFSIYDMSWVRQAPGKGLEWVAYISSGGGTTYYPDTVKGRFTISRDNAKNSLYLQMSSLRAEDTAMYYCARHSHYGSSYGVLFAYWGQGTLVTVSS VL: DIQMTQSPSSLSASVGDRVTITCRASQDISNYLNWYQQKPGKAVKLLIYYTSILHSGVPSRFSGSGSGTDYTLTISSLQQEDFATYFCQQGNTLPWTFGGGTKVEIK | no binding (tested: 50 nM)
MYT2303 (antibody, V domains shown, TRPH-222 VH G103H; tie by order) VH: EVQLVESGGGLVKPGGSLRLSCAASGFAFSIYDMSWVRQAPGKGLEWVAYISSGGGTTYYPDTVKGRFTISRDNAKNSLYLQMSSLRAEDTAMYYCARHSGYHSSYGVLFAYWGQGTLVTVSS VL: DIQMTQSPSSLSASVGDRVTITCRASQDISNYLNWYQQKPGKAVKLLIYYTSILHSGVPSRFSGSGSGTDYTLTISSLQQEDFATYFCQQGNTLPWTFGGGTKVEIK | no binding (tested: 50 nM)
MYT1496 (antibody, V domains shown, ADCT-602 VH G26H; tie by order) VH: QVQLVQSGAEVKKPGSSVKVSCKASHYTFTSYWLHWVRQAPGQGLEWIGYINPRNDYTEYNQNFKDKATITADESTNTAYMELSSLRSEDTAFYFCARRDITTFYWGQGTTVTVSS VL: DIQLTQSPSSLSASVGDRVTMSCKSSQSVLYSANHKNYLAWYQQKPGKAPKLLIYWASTRESGVPSRFSGSGSGTDFTFTISSLQPEDIATYYCHQYLSSWTFGGGTKVQIK | no binding (tested: 50 nM)
MYT1498 (antibody, V domains shown, ADCT-602 VH T28H; tie by order) VH: QVQLVQSGAEVKKPGSSVKVSCKASGYHFTSYWLHWVRQAPGQGLEWIGYINPRNDYTEYNQNFKDKATITADESTNTAYMELSSLRSEDTAFYFCARRDITTFYWGQGTTVTVSS VL: DIQLTQSPSSLSASVGDRVTMSCKSSQSVLYSANHKNYLAWYQQKPGKAPKLLIYWASTRESGVPSRFSGSGSGTDFTFTISSLQPEDIATYYCHQYLSSWTFGGGTKVQIK | no binding (tested: 50 nM)
MYT1497 (antibody, V domains shown, ADCT-602 VH Y27H; tie by order) VH: QVQLVQSGAEVKKPGSSVKVSCKASGHTFTSYWLHWVRQAPGQGLEWIGYINPRNDYTEYNQNFKDKATITADESTNTAYMELSSLRSEDTAFYFCARRDITTFYWGQGTTVTVSS VL: DIQLTQSPSSLSASVGDRVTMSCKSSQSVLYSANHKNYLAWYQQKPGKAPKLLIYWASTRESGVPSRFSGSGSGTDFTFTISSLQPEDIATYYCHQYLSSWTFGGGTKVQIK | no binding (tested: 50 nM)
MYT1504 (antibody, V domains shown, ADCT-602 VH L34H; tie by order) VH: QVQLVQSGAEVKKPGSSVKVSCKASGYTFTSYWHHWVRQAPGQGLEWIGYINPRNDYTEYNQNFKDKATITADESTNTAYMELSSLRSEDTAFYFCARRDITTFYWGQGTTVTVSS VL: DIQLTQSPSSLSASVGDRVTMSCKSSQSVLYSANHKNYLAWYQQKPGKAPKLLIYWASTRESGVPSRFSGSGSGTDFTFTISSLQPEDIATYYCHQYLSSWTFGGGTKVQIK | no binding (tested: 50 nM)
MYT1499 (antibody, V domains shown, ADCT-602 VH F29H; tie by order) VH: QVQLVQSGAEVKKPGSSVKVSCKASGYTHTSYWLHWVRQAPGQGLEWIGYINPRNDYTEYNQNFKDKATITADESTNTAYMELSSLRSEDTAFYFCARRDITTFYWGQGTTVTVSS VL: DIQLTQSPSSLSASVGDRVTMSCKSSQSVLYSANHKNYLAWYQQKPGKAPKLLIYWASTRESGVPSRFSGSGSGTDFTFTISSLQPEDIATYYCHQYLSSWTFGGGTKVQIK | no binding (tested: 50 nM)
